Measurements: US20230073274A1 (NOVELMED THERAPEUTICS, published 2023)

Legend:
human properdin [1] = target: T1, human properdin (human, UniProt P27918 28-469); assay: cell-based or functional assay
human properdin [2] = target: T1, human properdin; assay: cell-based or functional assay; remark: listed apart in the source
human properdin [3] = target: T1, human properdin; assay: cell-based or functional assay; remark: listed apart in the source
human properdin [4] = target: T1, human properdin; assay: ELISA, human properdin coated on plate
Method: (§1) Polystyrene microtiter plates were coated with human (2.0 μg/50 μl per well) properdin in phosphate buffered saline (PBS) overnight at 4° C. After aspirating the properdin solution, the wells were blocked with PBS containing 1% bovine serum albumin (BSA) (Sigma-Aldrich, St. Louis, Mo.) for 2 hours at room temperature. Wells without peptide or properdin coating served as background controls. Aliquots of the test antibody in blocking solution were added to the properdin coated wells and allowed to incubate for 1 hour to allow binding to occur. Following a 1 hour incubation at room temperature, the plate was rinsed with PBS five times and incubated with 1:2000 diluted anti-properdin polyclonal antibody.

human properdin [5] = target: T1, human properdin; assay: cell-based or functional assay; remark: listed apart in the source
human properdin [6] = target: T1, human properdin; assay: ELISA, human properdin coated on the plate, OD 450 nm
Method: as §1

human properdin [7] = target: T1, human properdin; assay: ELISA, properdin coated on the plate, OD 450 nm
human properdin [8] = target: T1, human properdin; assay: cell-based or functional assay; remark: listed apart in the source

T1 sequence (P27918 28-469 limits assumed): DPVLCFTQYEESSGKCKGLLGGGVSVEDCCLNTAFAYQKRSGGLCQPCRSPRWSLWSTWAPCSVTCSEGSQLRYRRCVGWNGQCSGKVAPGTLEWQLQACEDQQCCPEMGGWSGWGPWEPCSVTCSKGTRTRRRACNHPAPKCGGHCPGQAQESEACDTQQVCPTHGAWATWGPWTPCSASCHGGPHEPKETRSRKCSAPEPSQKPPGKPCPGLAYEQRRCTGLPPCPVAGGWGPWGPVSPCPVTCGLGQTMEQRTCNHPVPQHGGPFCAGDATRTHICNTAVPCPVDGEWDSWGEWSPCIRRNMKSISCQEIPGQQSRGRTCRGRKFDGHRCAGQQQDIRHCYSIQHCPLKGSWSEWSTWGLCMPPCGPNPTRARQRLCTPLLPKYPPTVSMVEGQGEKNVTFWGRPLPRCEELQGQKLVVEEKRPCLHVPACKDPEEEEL

Binder | IC50 (read off the curve): properdin deposition (AP C3 convertase formation assay) (human properdin [1]) [µg/mL] | IC50 (read off the curve): C3b deposition (AP activation on LPS, normal human serum) (human properdin [2]) [µg/mL] | MAC (µg/Ml); inhibition of MAC formation (human properdin [3]) [µg/mL] | Properdin (µg/mL); inhibition of properdin deposition (human properdin [3]) [µg/mL] | Binding Affinity (human properdin [4]) [pM] | IC50 (read off the curve): properdin deposition (AP activation on LPS, 10% normal human serum) (human properdin [5]) [µg/mL] | EC50 (read off the curve) (human properdin [6]) [nM] | EC50 (read off the curve) (human properdin [7]) [nM] | IC50 (read off the curve): C3b deposition (sheet title: LPS C3b 10% NHS) (human properdin [8]) [µg/mL]
NMT31 (antibody, V domains shown) VH: EVTLKESGPTLVKPTQTLTLTCTFSGFSLSTSGMGVGWIRQPPGKALEWLAHIWWDDVKSYNPALKSRLTITKDTSKNQVVLTMTNMDPVDTATYYCARIGDGYYSFDYWGQGTTVTVSS VL: DIQMTQSPSSLSASVGDRVTITCRASQDVSDAVAWFQQKPGKAPKLLIYSPSYRYTGVPSRFSGSGSGTDFTFTISSLQPEDLATYYCQQHYSTPWTFGQGTKLEIK |  |  |  |  |  |  |  | ~0.06 | ~0.7
NMT29 (antibody, V domains shown) VH: EVTLKESGPTLVKPTQTLTLTCTFSGFSLSTSGMGVGWIRQPPGKALEWLAHIWWDDVKSYNPALKSRLTITKDTSKNQVVLTMTNMDPVDTATYYCARIGDGYYSFDYWGQGTTVTVSS VL: DIQMTQSPSSLSASVGDRVTITCRASQDVSDAVAWYQQKPGKAPKLLIYSPSYRYTGVPSRFSGSGSGTDFTLTISSLQPEDFATYYCQQHYSTPWTFGQGTKLEIK |  |  |  |  |  |  |  | ~0.05 | ~0.9

Further lines, results first:

IC50 (read off the curve): properdin deposition (AP C3 convertase formation assay) (human properdin [1]) [µg/mL] | IC50 (read off the curve): C3b deposition (AP activation on LPS, normal human serum) (human properdin [2]) [µg/mL] | MAC (µg/Ml); inhibition of MAC formation (human properdin [3]) [µg/mL] | Properdin (µg/mL); inhibition of properdin deposition (human properdin [3]) [µg/mL] | Binding Affinity (human properdin [4]) [pM] | IC50 (read off the curve): properdin deposition (AP activation on LPS, 10% normal human serum) (human properdin [5]) [µg/mL] | EC50 (read off the curve) (human properdin [6]) [nM] | EC50 (read off the curve) (human properdin [7]) [nM] | IC50 (read off the curve): C3b deposition (sheet title: LPS C3b 10% NHS) (human properdin [8]) [µg/mL] | Binder
~0.4 | ~0.5 | 1 | 2 | 270 | ~0.8 | 0.2 to 0.3 |  |  | NMT15 (antibody, V domains shown) VH: QVQLVQSAPEVAKPGTSVKMSCKASGYIFTNYPIHWVKQAPGQGLEWIGFIDPGGGYDEPDERFRDRATLTADKSTSTAYMELSSLRSEDTAIYYCARRGGGYYLDYWGQGTLVTVSS VL: DIQMTQSPSSLSASLGDRVTITCRASQDISFFLNWYQQKPDGTVKLLIYYTSRYHSGVPSRFSGSGSGTDFTLTISSLQPEDFATYFCQHGNTLPWTFGQGTKLEIK
 |  |  |  |  |  |  | ~0.04 | ~0.4 | NMT30 (antibody, V domains shown) VH: EVTLKESGPTLVKPTQTLTLTCTFSGFSLSTSGMGVGWIRQPPGKALEWLAHIWWDDVKSYNPALKSRLTITKDTSKNQVVLTITNVDPVDTATYYCARIGDGYYSFDYWGQGTTLTVSS VL: DIQMTQSPSSLSASVGDRVTITCRASQDVSDAVAWFQQKPGKAPKLLIYSPSYRYTGVPSRFSGSGSGTDFTFTISSLQPEDFATYYCQQHYSTPWTFGQGTKLEIK
